Results reported in patent US20260242478A1 (published 2026).
Where no end group is shown, it is not given here.

Tests used:
PSMA Fab [1] = biological target: T1, PSMA Fab; assay: clonal phage ELISA on captured PSMA Fab pre-incubated with PSMA antigen as competitor, anti-M13 HRP detection;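 further: crude clonal phage supernatants tested by ELISA, wells first treated with blocking buffer plus PSMA antigen, bound phage read out via HRP-linked anti-M13 antibody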
T1 construct: also called Anti-PSMA Fab; 006 PSMA Fab
Procedure: (§1) Clonal phage were harvested as crude supernatants and screened via standard ELISAs. […] Prior to the addition of clonal phage. wells were incubated with blocking buffer and PSMA antigen or blocking buffer alone. Without washing or aspirating, clonal phage supernatants were then added to the wells and incubated for a short time. Wells were then washed followed by detection of bound phage using a horse radish conjugated anti-M13 antibody.

PSMA Fab [2] = biological target: T1, PSMA Fab; assay: clonal phage ELISA on biotinylated PSMA Fab captured on neutravidin plates, anti-M13 HRP detection, blocking buffer alone
Procedure: as §1

PSMA Fab [3] = biological target: T2, PSMA Fab; assay: clonal phage ELISA on biotinylated PSMA Fab captured on neutravidin, anti-M13 HRP detection;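 further: crude clonal phage supernatants added to wells pretreated with PSMA antigen in blocking buffer or with blocking buffer only, then briefly incubated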
T2 construct: also called Anti-PSMA Fab; 006 PSMA Fab
Procedure: as §1

PSMA Fab [4] = biological target: T2, PSMA Fab; assay: clonal phage ELISA on captured PSMA Fab pre-incubated with PSMA antigen as competitor;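 further: crude clonal phage supernatants added to wells without washing away the PSMA competitor, bound phage detected by HRP-conjugated anti-M13 antibody, reference wells received blocking buffer only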
Procedure: as §1

PSMA Fab (006 PSMA Fab) [5] = biological target: T3, PSMA Fab (006 PSMA Fab); assay: phage binding ELISA; biotinylated PSMA Fab on neutravidin plate, clonal phage supernatant, anti-M13 HRP detection;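 further: wells were preincubated with blocking buffer either containing PSMA antigen or without it before crude phage supernatant was added, briefly incubated, then washed prior to detection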
T3 construct: also called Anti-PSMA Fab
Procedure: as §1

PSMA Fab (006 PSMA Fab) [6] = biological target: T3, PSMA Fab (006 PSMA Fab); assay: phage binding ELISA; PSMA Fab wells pre-incubated with PSMA antigen as competitor, anti-M13 HRP detection
Procedure: as §1

Binder	Phage binding ELISA signal, Anti-PSMA Fab (PSMA Fab [3])	Phage binding ELISA signal, Anti-PSMA Fab in presence of PSMA (PSMA Fab [4])	Phage binding ELISA signal, Anti-PSMA Fab (PSMA Fab (006 PSMA Fab) [5])	Phage binding ELISA signal, Anti-PSMA Fab with PSMA antigen (PSMA Fab (006 PSMA Fab) [6])	further results
IQVMCRPAWMCSGF (cysteine pairing not given here; also: fused to phage pIII, orientation and linker not given here, Clonal phage of the Peptide-180 library, tested as crude supernatant; not shown: fused to pIII of the bacteriophage) [Phage-3156]					phage binding ELISA signal (Anti-PSMA Fab, PSMA antigen present) (PSMA Fab [1]): 0.0959; Phage binding ELISA signal, Anti-PSMA Fab (PSMA Fab [2]): 2.04
IVPYCMPQWMCSGF (cysteine pairing not given here; also: fused to phage pIII, orientation and linker not given here) [Phage-3158]	2.04	0.107			
MDKICSPMWMCLGF (cysteine pairing not given here; also: fused to phage pIII, fusion site not given here) [Phage-3164]	2.03	0.0702			
NHVQCVPNWMCSGF (cysteine pairing not given here; also: fused to phage pIII, fusion site not given here) [Phage-3161]	2.03	0.138			
YMMICRPAWMCSGL [Phage-3179]			2.01	0.116	
VTRMCVPEWMCSGI [Phage-3176]			2.02	0.0628	
TYPKCIPPWMCTGF (cysteine pairing not given here; also: fused to phage pIII, fusion site not given here) [Phage-3167]	2.03	0.115			
MDRMCVPEWMCYVF [Phage-3173]			2.02	0.0741	
LALRCEPSWMCLGF (cysteine pairing not given here; also: fused to phage pIII, orientation and linker not given here) [Phage-3160]	2.03	0.112			
NVHYCVPAWMCNGF (cysteine pairing not given here; also: fused to phage pIII, fusion site not given here) [Phage-3165]	2.03	0.163			
GEVFCIPAWMCAGF (cysteine pairing not given here; also: fused to phage pIII, fusion site not given here) [Phage-3171]			2.02	0.107	
FPRLCEPLWMCKGF (cysteine pairing not given here; also: fused to phage pIII, orientation and linker not given here, Clonal phage of the Peptide-180 library, tested as crude supernatant; not shown: fused to pIII of the bacteriophage) [Phage-3151]					phage binding ELISA signal (Anti-PSMA Fab, PSMA antigen present) (PSMA Fab [1]): 0.0987; Phage binding ELISA signal, Anti-PSMA Fab (PSMA Fab [2]): 2.04
PWIVCKPAWMCTGF (cysteine pairing not given here; also: fused to phage pIII, orientation and linker not given here, Clonal phage of the Peptide-180 library, tested as crude supernatant; not shown: fused to pIII of the bacteriophage) [Phage-3154]					phage binding ELISA signal (Anti-PSMA Fab, PSMA antigen present) (PSMA Fab [1]): 0.118; Phage binding ELISA signal, Anti-PSMA Fab (PSMA Fab [2]): 2.04
DIHLCTPNWMCSGF (cysteine pairing not given here; also: fused to phage pIII, fusion site not given here) [Phage-3163]	2.03	0.0738			
ANLLCIPNWMCSGF [Phage-3172]			2.02	0.0969	
GVSMCIPAWMCQGF [Phage-3181]			2.01	0.0737	
LVRVCTPMWMCQGF (cysteine pairing not given here; also: fused to phage pIII, fusion site not given here) [Phage-3166]	2.03	0.058			

Binder	Phage binding ELISA signal, Anti-PSMA Fab (PSMA Fab [3])	Phage binding ELISA signal, Anti-PSMA Fab in presence of PSMA (PSMA Fab [4])	Phage binding ELISA signal, Anti-PSMA Fab (PSMA Fab (006 PSMA Fab) [5])	Phage binding ELISA signal, Anti-PSMA Fab with PSMA antigen (PSMA Fab (006 PSMA Fab) [6])	further results
ADWLCRPAWMCEGL (cysteine pairing not given here; also: fused to phage pIII, fusion site not given here) [Phage-3168]	2.02	0.0589			
EGAICKPEWMCKGF [Phage-3183]			2.01	0.0737	
YEQACQPPWMCLGF [Phage-3178]			2.02	0.0671	
EVKFCKPAWMCTGF (cysteine pairing not given here; also: fused to phage pIII, fusion site not given here) [Phage-3170]	2.02	0.0863			
QMPMCRPAWMCMGF (cysteine pairing not given here; also: fused to phage pIII, orientation and linker not given here) [Phage-3157]	2.04	0.105			
YEPVCRPAWMCIGF [Phage-3177]			2.02	0.0622	
WMAMCKPVWMCEGF (cysteine pairing not given here; also: fused to phage pIII, orientation and linker not given here) [Phage-3159]	2.04	0.163			
ETALCRPLWMCDWL (cysteine pairing not given here; also: fused to phage pIII, fusion site not given here) [Phage-3162]	2.03	0.0692			
YPSMCKPLWMCQGF [Phage-3175]			2.02	0.111	
VEKLCKPEWMCMGF (cysteine pairing not given here; also: fused to phage pIII, fusion site not given here) [Phage-3169]	2.02	0.0909			
VSSMCKPAWMCSGF (cysteine pairing not given here; also: fused to phage pIII, orientation and linker not given here, Clonal phage of the Peptide-180 library, tested as crude supernatant; not shown: fused to pIII of the bacteriophage) [Phage-3155]					phage binding ELISA signal (Anti-PSMA Fab, PSMA antigen present) (PSMA Fab [1]): 0.0629; Phage binding ELISA signal, Anti-PSMA Fab (PSMA Fab [2]): 2.04
DMSLCKPPWMCFGF (cysteine pairing not given here; also: fused to phage pIII, orientation and linker not given here, Clonal phage of the Peptide-180 library, tested as crude supernatant; not shown: fused to pIII of the bacteriophage) [Phage-3153]					phage binding ELISA signal (Anti-PSMA Fab, PSMA antigen present) (PSMA Fab [1]): 0.0792; Phage binding ELISA signal, Anti-PSMA Fab (PSMA Fab [2]): 2.04
VTAKCVPEWMCTGF [Phage-3174]			2.02	0.0968	
IQILCTPTWMCVGF [Phage-3182]			2.01	0.0781	
HERECIPRWMCTGF [Phage-3180]			2.01	0.065	
WDQWCVPKWMCQGF (cysteine pairing not given here; also: fused to phage pIII, orientation and linker not given here, Clonal phage of the Peptide-180 library, tested as crude supernatant; not shown: fused to pIII of the bacteriophage) [Phage-3152]					phage binding ELISA signal (Anti-PSMA Fab, PSMA antigen present) (PSMA Fab [1]): 0.197; Phage binding ELISA signal, Anti-PSMA Fab (PSMA Fab [2]): 2.04
